Source: PMC7108666

T1: Put3 (UniProt P25502 1-979)
T1 sequence: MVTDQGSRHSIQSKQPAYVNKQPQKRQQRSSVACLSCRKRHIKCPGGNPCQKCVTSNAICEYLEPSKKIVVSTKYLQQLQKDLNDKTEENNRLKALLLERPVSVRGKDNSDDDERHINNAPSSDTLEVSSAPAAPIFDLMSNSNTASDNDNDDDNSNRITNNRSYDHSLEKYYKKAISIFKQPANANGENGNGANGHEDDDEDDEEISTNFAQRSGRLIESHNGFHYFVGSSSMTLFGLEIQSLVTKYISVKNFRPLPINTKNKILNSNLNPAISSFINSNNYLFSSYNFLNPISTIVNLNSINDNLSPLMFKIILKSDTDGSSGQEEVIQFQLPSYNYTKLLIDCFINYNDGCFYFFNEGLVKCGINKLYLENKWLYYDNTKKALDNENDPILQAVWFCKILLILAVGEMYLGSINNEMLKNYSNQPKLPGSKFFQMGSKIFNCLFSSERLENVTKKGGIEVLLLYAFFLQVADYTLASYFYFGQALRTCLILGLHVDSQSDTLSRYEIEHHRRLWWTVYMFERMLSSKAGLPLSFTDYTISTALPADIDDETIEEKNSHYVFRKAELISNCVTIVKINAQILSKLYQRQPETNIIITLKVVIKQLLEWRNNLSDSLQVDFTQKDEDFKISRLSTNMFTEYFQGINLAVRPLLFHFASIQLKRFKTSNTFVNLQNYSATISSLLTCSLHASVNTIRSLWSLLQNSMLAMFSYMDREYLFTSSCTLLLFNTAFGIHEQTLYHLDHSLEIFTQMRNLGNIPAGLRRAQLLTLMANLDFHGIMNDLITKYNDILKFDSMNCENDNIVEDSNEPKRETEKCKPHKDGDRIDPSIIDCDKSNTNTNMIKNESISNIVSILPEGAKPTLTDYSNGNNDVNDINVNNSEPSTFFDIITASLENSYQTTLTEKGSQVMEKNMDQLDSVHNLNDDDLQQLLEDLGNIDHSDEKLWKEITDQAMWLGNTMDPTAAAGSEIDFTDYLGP


What was measured:
[1] = target: Put3;Myo3 (Saccharomyces cerevisiae?;Saccharomyces …, UniProt P25502;P36006 1-979;1-1272, |); experiment: EMSA
[2] = target: T1, Put3; experiment: EMSA

Row | Binder | binding result [1] | binding result [2]
1 | GRSI oligonucleotide (dsDNA) DNA 1: GTGTTCCGGGGTTGGATGCGGAA DNA 2: TTCCGCATCCAACCCCGGAACAC | binds | binds
2 | UAS oligonucleotide (dsDNA) DNA 1: TCTCGGGAAGCCAACTCCGAAGC DNA 2: GCTTCGGAGTTGGCTTCCCGAGA | – | binds
